The values that follow come from PMC4877013.

For assay [1], the target named is major histocompatibility complex class II of H-2^d (A^d) on macrophages of Balb/c mice (mouse (endogenous in Balb/c peritoneal macrophages)). Description: flow cytometry on cells; as a1, but L. donovani infected macrophages (I-MΦ) of Balb/c mice.
Assay [2] has the same target.

In the case of “LACK_(156-173) peptide (amino acid residues 156–173 of LACK protein, Leishmania homolog of receptors for activated C-kinase)”, in assay [1], the MFI of LACK (156-173)-A^d at '0' h in I-MΦ against N-MΦ stood at 30 % less. In assay [2], this substance displayed a rate of decrease of IL-2 production by anti-LACK T cell hybridoma LMR7.5 cocultured with peptide pulsed, fixed I-MΦ (0 to 12 h after the pulse) of 17.1; a rate of decrease of IL-2 production by anti-LACK T cell hybridoma LMR7.5 cocultured with peptide pulsed, fixed I-MΦ-AL (0 to 12 h after the pulse) of 15.8; a rate of decrease of IL-2 production by anti-LACK T cell hybridoma LMR7.5 cocultured with peptide pulsed, fixed N-MΦ (0 to 12 h after the pulse) of 1.29.
